# Reference: article PMC10643566, “Insights into the mechanism of SARS-CoV-2 main protease autocatalytic maturation from model precursors” (Communications Biology, 2023)
# Assays:
# [1] = target: mature MPro^E290A (SARS-CoV-2); test: enzyme kinetics (K_dimer from kcat/Km and the slope of rate vs the square of the protein concentration); FRET substrate at 200 µM, buffer B (25 mM Tris-HCl, pH 7, 50 mM NaCl, 1 mM TCEP), 28 °C; kcat/Km determined with equimolar GC373; dimer to monomers
# [2] = target: mature MPro^R298A (SARS-CoV-2); test: as above
Substance,Kd [1],Kd [2]
mature MPro^E290A (enzyme),353 µM,–
mature MPro^R298A (enzyme),–,7.13 µM
